What was measured:
Assay in all cases: holdup assay
Design in all cases: key: below the threshold = too weak to quantify, mostly under pKd 3.1 to 4
APBA3_1, O96018 = target: T1, APBA3_1, O96018
T1 sequence (O96018 389-490, limits assumed, looked up): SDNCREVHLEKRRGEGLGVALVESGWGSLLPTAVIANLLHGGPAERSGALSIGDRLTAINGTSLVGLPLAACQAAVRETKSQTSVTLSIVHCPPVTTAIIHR

ARHGAP21, Q5T5U3 = target: T2, ARHGAP21, Q5T5U3
T2 sequence (Q5T5U3 45-169, limits assumed, looked up): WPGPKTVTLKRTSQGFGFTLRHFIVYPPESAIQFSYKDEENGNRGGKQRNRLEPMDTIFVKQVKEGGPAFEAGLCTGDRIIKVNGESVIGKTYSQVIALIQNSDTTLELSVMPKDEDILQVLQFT

DLG3_1, Q92796 = target: T3, DLG3_1, Q92796
T3 sequence (Q92796 125-227, limits assumed, looked up): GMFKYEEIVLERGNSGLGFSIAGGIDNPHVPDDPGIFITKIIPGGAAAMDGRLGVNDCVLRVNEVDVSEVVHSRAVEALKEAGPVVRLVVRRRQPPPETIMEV

DLG4_3, P78352 = target: DLG4_3, P78352
Sequence of DLG4_3, P78352 (P78352 306-403): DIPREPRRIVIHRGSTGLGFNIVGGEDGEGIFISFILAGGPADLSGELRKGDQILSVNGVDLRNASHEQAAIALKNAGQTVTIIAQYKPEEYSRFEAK

GOPC, Q9HD26 = target: GOPC, Q9HD26
GRIP2_4, Q9C0E4 = target: GRIP2_4, Q9C0E4
Sequence of GRIP2_4, Q9C0E4 (Q9C0E4 446-548): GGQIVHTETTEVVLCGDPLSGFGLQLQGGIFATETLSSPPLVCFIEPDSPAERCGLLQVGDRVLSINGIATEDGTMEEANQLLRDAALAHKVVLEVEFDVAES

HTRA4, P83105 = target: T4, HTRA4, P83105
T4 sequence (P83105 378-476, limits assumed, looked up): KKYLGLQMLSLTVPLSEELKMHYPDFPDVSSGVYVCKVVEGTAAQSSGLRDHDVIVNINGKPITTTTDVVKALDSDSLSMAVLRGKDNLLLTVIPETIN

IL16_3, Q14005 = target: IL16_3, Q14005
Sequence of IL16_3, Q14005 (Q14005 1107-1207): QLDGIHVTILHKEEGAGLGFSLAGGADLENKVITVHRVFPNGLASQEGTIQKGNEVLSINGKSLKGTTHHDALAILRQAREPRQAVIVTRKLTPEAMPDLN

Inadl_10, Q8NI35 = target: Inadl_10, Q8NI35
Sequence of Inadl_10, Q8NI35 (Q8NI35 1673-1763): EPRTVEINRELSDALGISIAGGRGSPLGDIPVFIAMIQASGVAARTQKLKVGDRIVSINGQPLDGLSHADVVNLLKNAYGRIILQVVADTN

Inadl_6, Q8NI35 = target: Inadl_6, Q8NI35
Sequence of Inadl_6, Q8NI35 (Q8NI35 1058-1167): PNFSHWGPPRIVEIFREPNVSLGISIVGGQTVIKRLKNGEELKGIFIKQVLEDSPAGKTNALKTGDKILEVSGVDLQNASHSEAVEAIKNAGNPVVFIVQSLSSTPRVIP

LAP2, Q96RT1 = target: LAP2, Q96RT1
Sequence of LAP2, Q96RT1 (Q96RT1 other isoform, or with tags, fused parts or gaps): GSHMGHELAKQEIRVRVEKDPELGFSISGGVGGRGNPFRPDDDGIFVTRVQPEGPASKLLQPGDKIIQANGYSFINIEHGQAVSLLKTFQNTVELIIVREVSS

LNX1_3, Q8TBB1 = target: LNX1_3, Q8TBB1
Sequence of LNX1_3, Q8TBB1 (Q8TBB1 500-596): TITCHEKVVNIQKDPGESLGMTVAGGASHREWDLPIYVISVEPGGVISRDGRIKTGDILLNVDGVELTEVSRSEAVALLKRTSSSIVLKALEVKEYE

MAGI3_2, Q5TCQ9 = target: MAGI3_2, Q5TCQ9
Sequence of MAGI3_2, Q5TCQ9 (Q5TCQ9 398-503): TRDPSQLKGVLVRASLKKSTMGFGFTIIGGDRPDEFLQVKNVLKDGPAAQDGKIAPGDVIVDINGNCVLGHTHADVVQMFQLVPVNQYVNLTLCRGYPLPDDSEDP

MPP2, Q14168 = target: T5, MPP2, Q14168
T5 sequence (Q14168 180-250, limits assumed, looked up): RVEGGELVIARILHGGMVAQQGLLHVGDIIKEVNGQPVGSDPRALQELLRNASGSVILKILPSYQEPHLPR

NHERF3_1, Q5T2W1 = target: T6, NHERF3_1, Q5T2W1
T6 sequence (Q5T2W1 4-100, limits assumed, looked up): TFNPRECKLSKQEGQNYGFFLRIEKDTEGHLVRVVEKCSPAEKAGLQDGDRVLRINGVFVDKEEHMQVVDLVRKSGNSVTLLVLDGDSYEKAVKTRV

NHERF4_2, Q86UT5 = target: NHERF4_2, Q86UT5
Sequence of NHERF4_2, Q86UT5 (Q86UT5 220-308): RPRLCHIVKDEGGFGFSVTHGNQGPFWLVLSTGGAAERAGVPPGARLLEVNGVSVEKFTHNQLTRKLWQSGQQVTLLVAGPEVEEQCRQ

PARD3_3, Q8TEW0 = target: PARD3_3, Q8TEW0
Sequence of PARD3_3, Q8TEW0 (Q8TEW0 582-685): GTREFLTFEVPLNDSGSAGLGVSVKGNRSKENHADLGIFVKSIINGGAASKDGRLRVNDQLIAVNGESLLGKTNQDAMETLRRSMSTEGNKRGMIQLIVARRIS

PDZRN4_1, Q6ZMN7 = target: PDZRN4_1, Q6ZMN7
Sequence of PDZRN4_1, Q6ZMN7 (Q6ZMN7 213-318): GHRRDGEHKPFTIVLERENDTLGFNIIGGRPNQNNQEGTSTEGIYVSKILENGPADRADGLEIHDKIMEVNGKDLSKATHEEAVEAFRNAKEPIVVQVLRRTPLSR

PTPN13_1, Q12923 = target: T7, PTPN13_1, Q12923
T7 sequence (Q12923 1088-1188, limits assumed, looked up): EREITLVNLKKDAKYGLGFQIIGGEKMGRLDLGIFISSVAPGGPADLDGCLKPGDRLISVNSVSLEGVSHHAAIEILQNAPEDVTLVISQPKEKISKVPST

RAPGEF6, Q8TEU7 = target: T8, RAPGEF6, Q8TEU7
T8 sequence (Q8TEU7 525-625, limits assumed, looked up): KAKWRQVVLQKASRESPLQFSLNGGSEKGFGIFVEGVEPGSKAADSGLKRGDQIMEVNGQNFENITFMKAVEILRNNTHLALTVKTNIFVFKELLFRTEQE

SCRIB_3, Q14160 = target: SCRIB_3, Q14160
Sequence of SCRIB_3, Q14160 (Q14160 999-1103): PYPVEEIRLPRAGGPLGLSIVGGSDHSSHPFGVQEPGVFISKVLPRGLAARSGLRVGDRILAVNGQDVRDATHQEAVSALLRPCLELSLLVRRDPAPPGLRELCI

SHANK1, Q9Y566 = target: T9, SHANK1, Q9Y566
T9 sequence (Q9Y566 658-767, limits assumed, looked up): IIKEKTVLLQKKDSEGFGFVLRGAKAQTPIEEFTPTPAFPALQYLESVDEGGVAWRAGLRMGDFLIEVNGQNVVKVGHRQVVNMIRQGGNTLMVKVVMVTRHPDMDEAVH

SNTG2, Q9NY99 = target: T10, SNTG2, Q9NY99
T10 sequence (Q9NY99 68-166, limits assumed, looked up): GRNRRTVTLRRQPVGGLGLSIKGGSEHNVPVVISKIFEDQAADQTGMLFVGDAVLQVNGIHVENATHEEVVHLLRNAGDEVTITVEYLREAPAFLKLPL

TIAM2, Q8IVF5 = target: T11, TIAM2, Q8IVF5
T11 sequence (Q8IVF5 885-986, limits assumed, looked up): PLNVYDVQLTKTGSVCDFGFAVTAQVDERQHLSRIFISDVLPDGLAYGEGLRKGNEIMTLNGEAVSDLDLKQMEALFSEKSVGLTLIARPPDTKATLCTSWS

TX1BP3, O14907 = target: T12, TX1BP3, O14907
T12 sequence (O14907 10-122, limits assumed, looked up): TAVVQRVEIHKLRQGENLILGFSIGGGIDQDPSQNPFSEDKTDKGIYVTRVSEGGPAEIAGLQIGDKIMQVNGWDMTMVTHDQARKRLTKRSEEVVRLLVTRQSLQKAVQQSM

[1] = plain residues with an end cap or a label only (N-terminal biotin on a linker: ttds)
[2] = plain residues with an end cap or a label only (N-terminal biotin on a linker: ahx)

B1: KCNT2, Q6UVM3 (peptide)
chain: GQDSREETQL
- pKd (APBA3_1, O96018; [1]): below the threshold
- pKd (ARHGAP21, Q5T5U3; [1]): 3.68
- pKd (DLG3_1, Q92796; [1]): below the threshold
- pKd (DLG4_3, P78352; [1]): below the threshold
- pKd (GOPC, Q9HD26; [1]): 4.01
- pKd (GRIP2_4, Q9C0E4; [1]): below the threshold
- pKd (HTRA4, P83105; [1]): below the threshold
- pKd (IL16_3, Q14005; [1]): below the threshold
- pKd (Inadl_10, Q8NI35; [1]): below the threshold
- pKd (Inadl_6, Q8NI35; [1]): 4.19
- pKd (LAP2, Q96RT1; [1]): 3.75
- pKd (LNX1_3, Q8TBB1; [1]): below the threshold
- pKd (MAGI3_2, Q5TCQ9; [1]): 3.91
- pKd (MPP2, Q14168; [1]): below the threshold
- pKd (NHERF3_1, Q5T2W1; [1]): 5.47
- pKd (NHERF4_2, Q86UT5; [1]): below the threshold
- pKd (PARD3_3, Q8TEW0; [1]): 4.04
- pKd (PDZRN4_1, Q6ZMN7; [1]): 4.97
- pKd (PTPN13_1, Q12923; [1]): below the threshold
- pKd (RAPGEF6, Q8TEU7; [1]): below the threshold
- pKd (SCRIB_3, Q14160; [1]): 5.07
- pKd (SHANK1, Q9Y566; [1]): 4.67
- pKd (SNTG2, Q9NY99; [1]): 4.39
- pKd (TIAM2, Q8IVF5; [1]): below the threshold
- pKd (TX1BP3, O14907; [1]): 3.83

B2: TJP2, Q9UDY2 (peptide)
chain: QSARYRDTEL
- pKd (APBA3_1, O96018; [1]): below the threshold
- pKd (ARHGAP21, Q5T5U3; [1]): 4.48
- pKd (DLG3_1, Q92796; [1]): below the threshold
- pKd (DLG4_3, P78352; [1]): below the threshold
- pKd (GOPC, Q9HD26; [1]): below the threshold
- pKd (GRIP2_4, Q9C0E4; [1]): below the threshold
- pKd (HTRA4, P83105; [1]): below the threshold
- pKd (IL16_3, Q14005; [1]): below the threshold
- pKd (Inadl_10, Q8NI35; [1]): below the threshold
- pKd (Inadl_6, Q8NI35; [1]): below the threshold
- pKd (LAP2, Q96RT1; [1]): below the threshold
- pKd (LNX1_3, Q8TBB1; [1]): below the threshold
- pKd (MAGI3_2, Q5TCQ9; [1]): below the threshold
- pKd (MPP2, Q14168; [1]): below the threshold
- pKd (NHERF3_1, Q5T2W1; [1]): 4.33
- pKd (NHERF4_2, Q86UT5; [1]): below the threshold
- pKd (PARD3_3, Q8TEW0; [1]): 3.7
- pKd (PDZRN4_1, Q6ZMN7; [1]): 4.41
- pKd (PTPN13_1, Q12923; [1]): below the threshold
- pKd (RAPGEF6, Q8TEU7; [1]): 3.55
- pKd (SCRIB_3, Q14160; [1]): 4.65
- pKd (SHANK1, Q9Y566; [1]): 3.74
- pKd (SNTG2, Q9NY99; [1]): 3.84
- pKd (TIAM2, Q8IVF5; [1]): below the threshold
- pKd (TX1BP3, O14907; [1]): 4.76

B3: MYO18A, Q92614 (peptide)
chain: TEAKLTETNA
- pKd (APBA3_1, O96018; [2]): below the threshold
- pKd (ARHGAP21, Q5T5U3; [2]): below the threshold
- pKd (DLG3_1, Q92796; [2]): below the threshold
- pKd (DLG4_3, P78352; [2]): below the threshold
- pKd (GOPC, Q9HD26; [2]): below the threshold
- pKd (GRIP2_4, Q9C0E4; [2]): below the threshold
- pKd (HTRA4, P83105; [2]): below the threshold
- pKd (IL16_3, Q14005; [2]): below the threshold
- pKd (Inadl_10, Q8NI35; [2]): below the threshold
- pKd (Inadl_6, Q8NI35; [2]): below the threshold
- pKd (LAP2, Q96RT1; [2]): below the threshold
- pKd (LNX1_3, Q8TBB1; [2]): below the threshold
- pKd (MAGI3_2, Q5TCQ9; [2]): below the threshold
- pKd (MPP2, Q14168; [2]): below the threshold
- pKd (NHERF3_1, Q5T2W1; [2]): below the threshold
- pKd (NHERF4_2, Q86UT5; [2]): below the threshold
- pKd (PARD3_3, Q8TEW0; [2]): below the threshold
- pKd (PDZRN4_1, Q6ZMN7; [2]): below the threshold
- pKd (PTPN13_1, Q12923; [2]): below the threshold
- pKd (RAPGEF6, Q8TEU7; [2]): below the threshold
- pKd (SCRIB_3, Q14160; [2]): below the threshold
- pKd (SHANK1, Q9Y566; [2]): below the threshold
- pKd (SNTG2, Q9NY99; [2]): below the threshold
- pKd (TIAM2, Q8IVF5; [2]): below the threshold
- pKd (TX1BP3, O14907; [2]): below the threshold

B4: ARHGAP17, Q68EM7 (peptide)
chain: IDNDTESTAL
- pKd (APBA3_1, O96018; [1]): below the threshold
- pKd (ARHGAP21, Q5T5U3; [1]): below the threshold
- pKd (DLG3_1, Q92796; [1]): below the threshold
- pKd (DLG4_3, P78352; [1]): below the threshold
- pKd (GOPC, Q9HD26; [1]): 3.86
- pKd (GRIP2_4, Q9C0E4; [1]): below the threshold
- pKd (HTRA4, P83105; [1]): below the threshold
- pKd (IL16_3, Q14005; [1]): below the threshold
- pKd (Inadl_10, Q8NI35; [1]): below the threshold
- pKd (Inadl_6, Q8NI35; [1]): 3.91
- pKd (LAP2, Q96RT1; [1]): below the threshold
- pKd (LNX1_3, Q8TBB1; [1]): below the threshold
- pKd (MAGI3_2, Q5TCQ9; [1]): below the threshold
- pKd (MPP2, Q14168; [1]): below the threshold
- pKd (NHERF3_1, Q5T2W1; [1]): 5.25
- pKd (NHERF4_2, Q86UT5; [1]): below the threshold
- pKd (PARD3_3, Q8TEW0; [1]): below the threshold
- pKd (PDZRN4_1, Q6ZMN7; [1]): 4.26
- pKd (PTPN13_1, Q12923; [1]): below the threshold
- pKd (RAPGEF6, Q8TEU7; [1]): below the threshold
- pKd (SCRIB_3, Q14160; [1]): 4.57
- pKd (SHANK1, Q9Y566; [1]): 5.53
- pKd (SNTG2, Q9NY99; [1]): 3.8
- pKd (TIAM2, Q8IVF5; [1]): below the threshold
- pKd (TX1BP3, O14907; [1]): below the threshold
